Assay results taken from the supplement of paper PMC9170038.

Test system: MS2 coat protein
Experiment: apparent KD of MS2 coat protein; designed switch direction (-1 OFF switch, 1 ON switch): -1; higher = weaker reporter binding
How it was run: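 Designed RNA switches were transcribed on Illumina chips by stalled E. coli RNA polymerase and titrated with SNAP-549-labelled MS2 coat protein from 0.7 or 1.5 nM, doubling to 3 µM. Step length ran from 0.8–1.5 h at the lowest concentration to 10–20 min at the highest. The apparent KD is the median over clusters for each design, from curve-fitted normalised cluster fluorescence.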

[1] = Eterna round: R95, input ligand: FMN 200 uM
[2] = Eterna round: R95, input ligand: microRNA oligo, concentration not stated
[3] = Eterna round: R95, input ligand: none

AAUAACAAGUAAGGUCCUAACAUGAGGAUCACCCAUGUGCUCGUCUUAUAAAGUACUAUCACGAAAGUGAUAGUACA [Sensor 3, v1 - 52] (puzzle: Sensor v3, turn-off variant 1)
apparent KD of MS2 coat protein [1]: 52.5 nM
apparent KD of MS2 coat protein [2]: 414 nM
apparent KD of MS2 coat protein [3]: 52.1 nM

AAUAACAAGUAGAUCCUAAACAUGAGGAUCACCCAUGUGCUCGUCUUGUAAAGUACUAUCACGAAAGUGAUAGUACA (Eterna round: R97, puzzle: Sensor, turn-off variant 1)
apparent KD of MS2 coat protein (input ligand: FMN 200 uM): 84.5 nM
apparent KD of MS2 coat protein (input ligand: none): 85.2 nM

AAUAACAAGUAGAUCCUAAACAUGAGGAUCACCCAUGUGCUCGUCUUGUAAAGUACUAUCACGAAAGUGAUAGUACA [Sensor 3, v1 - 58] (puzzle: Sensor v3, turn-off variant 1)
apparent KD of MS2 coat protein [1]: 67 nM
apparent KD of MS2 coat protein [2]: 360 nM
apparent KD of MS2 coat protein [3]: 115 nM

AAUAACAAUGUGAGGAUAUCUAGAGCUUCGGCUCUAGAGAAGGCACAUGAGGAUCACCCAUGUCUCAAUAACAA [BmEx4/2-E6] (Eterna round: R97, puzzle: Brourd's mod of Exclusion 4)
apparent KD of MS2 coat protein (input ligand: FMN 200 uM): 339 nM
apparent KD of MS2 coat protein (input ligand: none): 54.6 nM

AAUAACAGAGGAUAUACUAAAAUAUGAAUAAAAUAAAUAAAACAUGAGGAUCACCCAUGUAGAAGGCUGAAUAA [JMF's Not so obvious solution 7] (puzzle: Exclusion 2)
apparent KD of MS2 coat protein [1]: 26 nM
apparent KD of MS2 coat protein [2]: 29.3 nM
apparent KD of MS2 coat protein [3]: 25 nM

AAUAACAGAGGAUAUACUAUUUUAUGUAUUUAUUAUUUUGAACAUGAGGAUCACCCAUGUAGAAGGCUGAAUGA [JMF 62] (puzzle: Exclusion 2)
apparent KD of MS2 coat protein [2]: 24.4 nM

AAUAACAGAGGAUAUACUAUUUUAUGUAUUUAUUAUUUUGAACAUGAGGAUCACCCAUGUAGAAGGCUGAUUAA [JMF 47] (puzzle: Exclusion 2)
apparent KD of MS2 coat protein [2]: 28.7 nM

AAUAACAGAGGAUAUACUAUUUUAUGUGUUUAUUGUUUUGAACAUGAGGAUCACCCAUGUAGAAGGCUGAAUGA [JMF 67] (puzzle: Exclusion 2)
apparent KD of MS2 coat protein [2]: 25.8 nM

AAUAACAGAGGAUAUACUAUUUUAUGUGUUUGUUAUUUUAAACAUGAGGAUCACCCAUGUAGAAGGCUGAUUGA [JMF 72] (puzzle: Exclusion 2)
apparent KD of MS2 coat protein [2]: 41 nM

AAUAACAGAGGAUAUACUGUUUUAUGUGUUUAUUAUUUUAAACAUGAGGAUCACCCAUGUAGAAGGCUGAAUAA [JMF 13] (puzzle: Exclusion 2)
apparent KD of MS2 coat protein [2]: 37 nM

AAUAACAGAGGAUAUACUGUUUUAUGUGUUUAUUGUUUUGAACAUGAGGAUCACCCAUGUAGAAGGCUGAAUGA [JMF 66] (puzzle: Exclusion 2)
apparent KD of MS2 coat protein [2]: 23 nM

AAUAACAGAGGAUAUACUGUUUUAUGUGUUUGUUAUUUUAAACAUGAGGAUCACCCAUGUAGAAGGCUGAAUAA [JMF 15] (puzzle: Exclusion 2)
apparent KD of MS2 coat protein [2]: 19.8 nM

AAUAACAGAGGAUAUACUGUUUUAUGUGUUUGUUAUUUUGAACAUGAGGAUCACCCAUGUAGAAGGCUGAAUGA [JMF 64] (puzzle: Exclusion 2)
apparent KD of MS2 coat protein [2]: 27.1 nM

AAUAACAGAGGAUAUACUGUUUUAUGUGUUUGUUGUUUUAAACAUGAGGAUCACCCAUGUAGAAGGCUGAAUAA [JMF 19] (puzzle: Exclusion 2)
apparent KD of MS2 coat protein [2]: 18.4 nM

AAUAACAUGUUGAUCAAAUACAUGAGGAUCACCCAUGUAUGCUUUUUGUUCGAUAAGAUCAACUAAUAAUAAUAAUA [StovNew/1-C] (Eterna round: R97, puzzle: Sensor, turn-off variant 1)
apparent KD of MS2 coat protein (input ligand: FMN 200 uM): 12.2 nM
apparent KD of MS2 coat protein (input ligand: none): 12.6 nM

AAUAAGCGAGGAUAUACACCCGGAAAACGGGAACGGGCGAGACAUGAGGAUCACCCAUGUAGAAGGCGCGUCAA [Sogexe] (Eterna round: R97, puzzle: Exclusion 2)
apparent KD of MS2 coat protein (input ligand: FMN 200 uM): 28 nM
apparent KD of MS2 coat protein (input ligand: none): 77.9 nM
